Laboratory results published in patent US20140120109A1 (Regeneron, published 2014).

Columns and labels:
[1] = target: T1, full-length cynomolgus monkey TL1A expressed on HEK293 cells (cynomolgus monkey (Macaca fascicularis), UniProt O95150 1-251 (human entry)); experiment: cell-based or functional assay
T1 chain: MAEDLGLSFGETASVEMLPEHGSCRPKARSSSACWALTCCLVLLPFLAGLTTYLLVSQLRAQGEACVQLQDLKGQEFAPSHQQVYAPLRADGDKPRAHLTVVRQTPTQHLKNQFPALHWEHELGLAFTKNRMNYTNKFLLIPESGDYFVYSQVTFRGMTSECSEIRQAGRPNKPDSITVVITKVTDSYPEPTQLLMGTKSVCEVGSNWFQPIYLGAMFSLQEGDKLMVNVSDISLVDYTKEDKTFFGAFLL

[2] = target: T2, full length human TL1A expressed on HEK293 cells (human, UniProt O95150 1-251); experiment: cell-based or functional assay
T2 sequence: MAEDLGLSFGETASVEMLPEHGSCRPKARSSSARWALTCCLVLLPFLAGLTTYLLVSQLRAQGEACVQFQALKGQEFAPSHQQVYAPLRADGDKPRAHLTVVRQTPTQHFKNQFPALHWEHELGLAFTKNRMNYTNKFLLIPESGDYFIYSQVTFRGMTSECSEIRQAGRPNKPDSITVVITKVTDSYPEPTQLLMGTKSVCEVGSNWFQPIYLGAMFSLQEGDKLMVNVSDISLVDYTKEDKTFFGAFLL

[3] = target: T3, full-length Fhm, human TL1A(Q167R), expressed on HEK293 cells (human, UniProt O95150 1-251); experiment: cell-based or functional assay
T3 sequence: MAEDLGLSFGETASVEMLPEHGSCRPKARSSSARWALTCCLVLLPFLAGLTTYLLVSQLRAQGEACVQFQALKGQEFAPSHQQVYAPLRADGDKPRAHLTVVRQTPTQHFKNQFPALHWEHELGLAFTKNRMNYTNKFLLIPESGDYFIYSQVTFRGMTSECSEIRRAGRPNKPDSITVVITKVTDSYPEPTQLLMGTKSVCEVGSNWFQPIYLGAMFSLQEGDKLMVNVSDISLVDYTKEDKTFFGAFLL

[4] = target: T4, human TL1A, soluble, CHO-expressed, residues 72-251 of SEQ ID NO:244 with N-terminal His6-tag (human, UniProt O95150 72-251); experiment: cell-based or functional assay
T4 sequence: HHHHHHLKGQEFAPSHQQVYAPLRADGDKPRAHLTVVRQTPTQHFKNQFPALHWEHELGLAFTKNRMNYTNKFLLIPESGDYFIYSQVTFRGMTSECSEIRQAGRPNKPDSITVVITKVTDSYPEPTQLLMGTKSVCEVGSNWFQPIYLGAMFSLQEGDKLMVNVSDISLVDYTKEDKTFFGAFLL

[5] = target: T5, human TL1A, soluble, E. coli-expressed, residues 72-251 of SEQ ID NO:244 (human, UniProt O95150 72-251); experiment: cell-based or functional assay
T5 sequence: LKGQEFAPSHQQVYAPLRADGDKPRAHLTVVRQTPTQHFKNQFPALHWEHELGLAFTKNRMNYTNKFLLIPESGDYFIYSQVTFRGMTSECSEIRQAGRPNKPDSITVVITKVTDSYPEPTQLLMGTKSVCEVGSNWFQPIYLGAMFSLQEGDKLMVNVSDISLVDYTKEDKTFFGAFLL

[6] = target: T6, cynomolgus monkey TL1A, soluble, CHO-expressed, residues 72-251 of SEQ ID NO:248 with N-terminal His6-tag (cynomolgus monkey (Macaca fascicularis), UniProt O95150 72-251 (human entry)); experiment: cell-based or functional assay
T6 chain: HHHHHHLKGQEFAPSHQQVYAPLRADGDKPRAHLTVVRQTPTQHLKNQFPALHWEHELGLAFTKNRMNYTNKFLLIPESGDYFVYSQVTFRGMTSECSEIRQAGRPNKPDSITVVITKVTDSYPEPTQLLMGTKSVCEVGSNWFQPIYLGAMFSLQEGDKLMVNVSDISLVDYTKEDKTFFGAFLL

[7] = target: T7, cynomolgus monkey TL1A, soluble, E. coli-expressed, residues 72-251 of SEQ ID NO:248 (cynomolgus monkey (Macaca fascicularis), UniProt O95150 72-251 (human entry)); experiment: cell-based or functional assay
T7 chain: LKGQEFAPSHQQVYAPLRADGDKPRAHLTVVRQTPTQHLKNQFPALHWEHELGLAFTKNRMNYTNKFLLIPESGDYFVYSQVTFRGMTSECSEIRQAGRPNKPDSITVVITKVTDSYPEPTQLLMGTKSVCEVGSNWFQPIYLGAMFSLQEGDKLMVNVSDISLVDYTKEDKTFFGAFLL

[8] = target: T4, human TL1A, soluble, CHO-expressed, …; experiment: SPR 25C, mAb captured
Method in brief: (§1)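 Biacore T100 SPR with captured mAb and soluble TL1A/Fhm analyte; ka and kd fitted to a 1:1 model assuming monomeric TL1A. KD = kd/ka; t1/2 (min) = ln2/(60·kd).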

[9] = target: T6, cynomolgus monkey TL1A, soluble, …; experiment: SPR 25C, mAb captured
Method in brief: as §1

[10] = target: T8, rat TL1A, soluble, CHO-expressed, residues 76-252 of SEQ ID NO:258 with N-terminal His6-tag (rat, UniProt Q8K3Y7 76-252); experiment: SPR 25C, mAb captured
T8 construct: also called rTL1A; rTL1A (CHO)
T8 sequence: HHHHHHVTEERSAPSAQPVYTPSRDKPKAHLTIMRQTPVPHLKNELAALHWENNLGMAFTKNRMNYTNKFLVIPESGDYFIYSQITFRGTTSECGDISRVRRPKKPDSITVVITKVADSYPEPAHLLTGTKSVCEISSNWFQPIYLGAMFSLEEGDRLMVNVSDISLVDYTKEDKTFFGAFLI
Method in brief: as §1

Row | Binder | IC50, reporter + 10,000 TL1A cells [1] [pM] | IC50, reporter + 10,000 TL1A cells [2] [pM] | IC50, reporter + 10,000 TL1A cells [3] [pM] | IC50, NFkB-luciferase reporter [4] [pM] | IC50, NFkB-luciferase reporter [5] [pM] | IC50, NFkB-luciferase reporter [6] [pM] | IC50, NFkB-luciferase reporter [7] [pM] | Kd [8] [pM] | t1/2 [8] [h] | Kd [9] [pM] | t1/2 [9] [h] | Kd [10] [pM] | t1/2 [10] [h] | binding result [10]
1 | H4H1742P (antibody, human IgG4 S228P, V domains shown) VH: EVQLVESGGGLVQPGGSLRLSCAASGFTFSNYVMNWVRQAPGKGLEWVSVISGSGGSTHYADSVKGRFTISRDNSKDALYLQMNSLRAEDTAVYYCAKGPLEAYYYYNGMDVWGQGTTVTVSS VL: DIQLTQSPSFLSASVGDRVTITCWASQAISSYLAWYQHKPGRAPKLLIYSTSTLQSGVPSRFSGSGSGTEFTLTISSLQPEDFATYYCQQLNSYPTFGQGTKLEIK | 18400 | 6550 | 8390 | 310 | 190 | 260 | 70 | 60.4 | 12.6 | 115 | 9.62 | 78 | 2.4 | 
2 | H4H1745P (antibody, human IgG4 S228P, V domains shown) VH: EVQLVESGGGLVQPGGSLRLSCAASGFTFSSYAMTWVRQAPGKGLEWVSGVSGRGGSTYYADSVKGRFTISRDNSKNTLYLQMNSLRAEDTAVYYCAYWDISSFDYWGQGTLVTVSS VL: DIQLTQSPSFLSASVGDRVTITCWASQGISTYLAWYQQKPGKTPKLLIYAASTLQSGVPSRFSGSGSGTDFTLTISSLQPEDFATYYCQQFNSYPLTFGGGTKVEIK | 4280 | 760 | 2120 | 90 | 60 | 50 | 30 | 164 | 2.87 | 115 | 3.85 | 2700 | 0.0667 | 
3 | H4H1818N (antibody, human IgG4 S228P, V domains shown, human IgG4(S108P) form of H2M1818N) VH: RLQLVESGGGLVKPGGSLKLSCAASGFTISDYYMSWIRQAPGKGLEWVSYIGGSGSTIYYADSVKGRFTISRDNAKNSLYLQMNSLRAEDTAVYYCAREDADSYYYYGMDVWGQGTTVTVSS VL: not shown | 4290 | 1540 | 1420 | 370 | 290 | 130 | 60 | 124 | 2 | 119 | 2.03 | 88 | 1.53 | 
4 | H4H1719P (antibody, human IgG4 S228P, V domains shown) VH: EVQLVESGGGLVQPGRSLRLSCVASGFTFQDYAMHWVRQAPGKGLEWVSGINWISDDMGYADSVMGRFTISRDNAKNSLYLQMDSLRAEDTALYYCAKDKGLRFLDYVMDVWGQGTTVTVSA VL: DIVMTQSPLSLPVTPGEPASISCRSTQSLLHRNGHNYLHWYLHKPGQSPQLLIHLGSNRASGVPDRFSGSGSGTDFTLKISRVEAEDVGVYYCMQALQTPYTFGQGTKLEIK | 3000 | 820 | 840 | 60 | 20 | 10 | 20 | 481 | 0.733 | 417 | 0.75 | 364 | 0.633 | 
5 | H4H1738P (antibody, human IgG4 S228P, V domains shown) VH: EVQLVESGGALVKPGGSLRLSCAVSGFTFINDWMNWVRQAPGKGLEWVGRIKSTTDGGTTDDAAPVKGRFTISRDDSKNTLYLQMNSLKTEDTAVYYCTRDRNRQRNYFYDGMDVWGQGTTVTVSA VL: DIVMTQSPVSLPVTPGEPASISCRSSQRLLHNNGNNYLDWYLQKPGQSPQLLIYLGSNRASGVPDRFSGSGSGTDFTLKVSRVEAEDVGVYYCMQALQTPYTFGQGTKLEIK | 20200 | 7470 | 7750 | 390 | 160 | 390 | 70 | 608 | 1.07 | 361 | 1.55 |  |  | no binding (tested: up to 100 nM)
6 | H4H1725P (antibody, human IgG4 S228P, V domains shown) VH: QVQLVQSGAEVKKPGASVKVSCKASGYTFTGYYMHWVRQAPGQGLEWMGWIKPKSGGTNYVQKFQGRVTMTRDTSINTAYMELNNLKSDDTAVYYCATGGSQDASDFWGQGTMVTVSS VL: DIQMTQSPSSVSASVGGRVTITCRASQDISIWLAWYQQKPGKAPNLLIYAASSLQSGVPSRFSGSGSGTDFTLTISSLQPEDFATYYCQQADSFPLTFGGGTKVEIK | 2820 | 660 | 940 | 50 | 20 | 10 | 20 | 63.6 | 3.08 | 346 | 1.07 | 317 | 0.433 | 
